Data on 116 sequences can be found in the supplement of paper PMC10724198.

± gives the standard deviation of the averaged measurements.
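Note: PSI is a weighted mean of sequencing reads over stability bins, variants kept only with over 10 reads, mCherry proximal and sfGFP distal, peptide attached via GGGS linker.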

This data set concerns Saccharomyces cerevisiae. As to the kind of experiment: protein stability index of tFT-peptide fusion (C-terminal peptide) (PSI (0-1 scale)); higher = more stable (slower turnover). The following applies: genetic background: wild type; temperature: 30 C.
IKSKERLKKRQS yielded a protein stability index of 0.6679 ± 0.00067.

IKTQKNKQITKI had a protein stability index of 0.705 ± 0.071.

Turning to IKVNAVAWLFGS, the protein stability index is 0.582 ± 0.032.

On to ILFKSTRAICSL, for which the protein stability index amounted to 0.621 ± 0.051.

Regarding ILGDGRLRLISF, the protein stability index worked out at 0.682 ± 0.05.

For the sequence ILILDTKPISKT, the protein stability index came to 0.7258 ± 0.006.

Regarding ILLFLRCFSGFF, the protein stability index was determined as 0.5619 ± 0.0046.

The sequence ILLFSLKHRSDH returned a protein stability index of 0.63 ± 0.018.

Take ILLLKFSKLNKK: the protein stability index worked out at 0.66 ± 0.033.

Consider ILLPLRHHSFSD, for which the protein stability index was determined as 0.643 ± 0.0087.

Sequence ILLSLSRWGMAG gave a protein stability index of 0.723 ± 0.024.

The sequence ILLYSPFGPPSS registered a protein stability index of 0.673 ± 0.026.

Take ILPPPYVPARLS: the protein stability index is 0.577 ± 0.054.

For the sequence ILSDRVLRVGVK, the protein stability index was 0.65502 ± 0.00049.

ILSWSGLSTGLE registered a protein stability index of 0.876 ± 0.065.

In turn, ILTALRNQPFLM returned a protein stability index of 0.669 ± 0.033.

ILTPPPLPDLLP came in with a protein stability index of 0.706 ± 0.019.

As for IMKRNKKIKREI, the protein stability index is 0.711 ± 0.024.

INKKKQRIRGKN registered a protein stability index of 0.69 ± 0.064.

Regarding INLRENETKQRN, the protein stability index turned out to be 0.673 ± 0.038.

With INPKSGIVVKFR, the protein stability index worked out at 0.679 ± 0.04.

For IPDRSLFPWTGR, the protein stability index was found to be 0.661 ± 0.012.

Sequence IPFEPSGPFMRN yielded a protein stability index of 0.7362 ± 0.007.

Turning to IPLPPHLTPPST, the protein stability index turned out to be 0.677 ± 0.086.

With IPPDAFAQLTYS, the protein stability index was found to be 0.733 ± 0.0093.

IPVGTVGTLNAA: the protein stability index worked out at 0.66 ± 0.057.

Sequence IQRLGTKNTNRI returned a protein stability index of 0.647 ± 0.039.

On to IRLLNKAACVTM, for which the protein stability index is 0.742 ± 0.04.

IRLSCGRVGGVV showed a protein stability index of 0.648 ± 0.012.

In the case of IRLYGQATFRWE, the protein stability index turned out to be 0.625 ± 0.086.

As for IRNDERHSKNQD, the protein stability index came out at 0.74 ± 0.062.

As to IRNGYVGNYKGN, the protein stability index amounted to 0.744 ± 0.025.

On to IRQRSRGGLSSD, for which the protein stability index was 0.684 ± 0.021.

In turn, IRYARSYDMSEC came in with a protein stability index of 0.654 ± 0.04.

ISCWHGYAKESS registered a protein stability index of 0.671 ± 0.039.

As to ISIVKENSSLTC, the protein stability index came out at 0.6552 ± 0.0053.

The sequence ISPCCGVPWLLR had a protein stability index of 0.708 ± 0.025.

Consider ISRFSLTFPFHR, for which the protein stability index was found to be 0.6947 ± 0.0039.

With ISRSLVDHQARP, the protein stability index amounted to 0.695 ± 0.045.

Take ISVLSIFVDSFV: the protein stability index came to 0.528 ± 0.0062.

Consider ISWCPRHPFSSD, for which the protein stability index is 0.752 ± 0.014.

For ISWERIHEKKRK, the protein stability index was found to be 0.784 ± 0.096.

For ISYGSGCGIVNH, the protein stability index turned out to be 0.683 ± 0.054.

Turning to ISYYDVYLSFLF, the protein stability index is 0.745 ± 0.13.

Consider ITGPPTGSPRYR, for which the protein stability index was 0.588 ± 0.23.

As for ITIVVATRPPGA, the protein stability index was determined as 0.617 ± 0.013.

Consider ITLFPKGLRANK, for which the protein stability index was 0.686 ± 0.045.

For ITLLYFAGVSVL, the protein stability index was determined as 0.513 ± 0.0074.

ITRATPILSYKK displayed a protein stability index of 0.677 ± 0.09.

ITSLQAPPEYLH came in with a protein stability index of 0.6922 ± 0.0062.

On to ITTVRGALLARY, for which the protein stability index stood at 0.666 ± 0.068.

In turn, ITYRTSGMGIRA yielded a protein stability index of 0.6182 ± 0.0028.

IVALDGWPGVEA: the protein stability index was determined as 0.7226 ± 0.0055.

In turn, IVCLWVAGHFGL returned a protein stability index of 0.602 ± 0.014.

As to IVHIKRVLGNAA, the protein stability index turned out to be 0.636 ± 0.012.

For IVPVCFVTDQHA, the protein stability index came out at 0.6605 ± 0.00071.

In the case of IWGGAVQARFKG, the protein stability index was 0.733 ± 0.14.

KADLKTKNMCRL displayed a protein stability index of 0.765 ± 0.017.

On to KAEKMRARQKED, for which the protein stability index was found to be 0.657 ± 0.011.

As to KAGKFLVGKSLS, the protein stability index came to 0.657 ± 0.026.

In turn, KCPPQKRPTLIQ registered a protein stability index of 0.679 ± 0.098.

Sequence KDEVESGRGLIS came in with a protein stability index of 0.633 ± 0.044.

KDRGEIKIRTKN returned a protein stability index of 0.696 ± 0.039.

In turn, KDTDTAHETERK returned a protein stability index of 0.697 ± 0.033.

As for KDTHNEKKGTPS, the protein stability index was 0.686 ± 0.082.

In turn, KECTWRQGKYNA gave a protein stability index of 0.752 ± 0.089.

In turn, KEEKNEENNKKE came in with a protein stability index of 0.641 ± 0.033.

Consider KEIRNNEKKKKK, for which the protein stability index was determined as 0.657 ± 0.013.

As for KEKIGIQIKKKR, the protein stability index worked out at 0.675 ± 0.047.

As to KELQKKRIKKKN, the protein stability index is 0.733 ± 0.078.

KEQKNNRKVTKK displayed a protein stability index of 0.715 ± 0.046.

In turn, KERQERGKRKII registered a protein stability index of 0.536 ± 0.035.

Take KGDKIEFVENKY: the protein stability index stood at 0.641 ± 0.022.

Regarding KGDPKLTKKKPL, the protein stability index is 0.613 ± 0.077.

KGKRQNIERCRK yielded a protein stability index of 0.644 ± 0.099.

On to KGVEVPGERMVG, for which the protein stability index was 0.742 ± 0.021.

Sequence KGVLTKRAVPST came in with a protein stability index of 0.703 ± 0.025.

With KHGLSDRAPLPK, the protein stability index was 0.698 ± 0.05.

Sequence KHGSKEAHKNEN returned a protein stability index of 0.695 ± 0.015.

KHKKKKKEYKKK: the protein stability index amounted to 0.729 ± 0.03.

With KHKRDRNIYKVT, the protein stability index was 0.679 ± 0.026.

KHRGAQRSRARH returned a protein stability index of 0.645 ± 0.012.

With KHSRKPTHKKLI, the protein stability index is 0.69 ± 0.016.

KHTKRIRLYKTK yielded a protein stability index of 0.7831 ± 0.0034.

For KIGNDQNVEDRK, the protein stability index is 0.756 ± 0.059.

Turning to KIIARMEKGKEI, the protein stability index was determined as 0.771 ± 0.042.

Take KIKEKNEKRELI: the protein stability index was 0.686 ± 0.11.

Regarding KIKGVKEEIVKM, the protein stability index came to 0.686 ± 0.029.

The sequence KIKKKKKNKTNR yielded a protein stability index of 0.676 ± 0.014.

The sequence KIKKKRGKTKKK registered a protein stability index of 0.708 ± 0.018.

KIKKNKNKKKKS showed a protein stability index of 0.686 ± 0.009.

Take KIKNYNSGKIKK: the protein stability index turned out to be 0.716 ± 0.024.

On to KIKTNLRQKTKN, for which the protein stability index was found to be 0.654 ± 0.016.

For the sequence KIKVKTKKWNIK, the protein stability index is 0.681 ± 0.018.

Regarding KILRRIFRNGGA, the protein stability index came out at 0.615 ± 0.062.

For KIMKINIYQKKR, the protein stability index was 0.691 ± 0.028.

Sequence KINQDKKKGKKK registered a protein stability index of 0.686 ± 0.079.

For KIQGGKQKTVDD, the protein stability index worked out at 0.824 ± 0.25.

For the sequence KIYESPLLEIKI, the protein stability index was found to be 0.617 ± 0.032.

KKEDNKEKYRKK yielded a protein stability index of 0.667 ± 0.013.

KKEKDKTINKQK registered a protein stability index of 0.697 ± 0.067.

Regarding KKEKEKRRDRWR, the protein stability index came out at 0.661 ± 0.014.

As for KKENKSKKIINR, the protein stability index is 0.568 ± 0.028.

In turn, KKGKIKKFIIKK returned a protein stability index of 0.694 ± 0.17.

Sequence KKGPANEWKRGE came in with a protein stability index of 0.685 ± 0.081.

KKGRGEGTKKKR registered a protein stability index of 0.602 ± 0.047.

In turn, KKGYKTVETRIS gave a protein stability index of 0.69 ± 0.082.

In turn, KKINKEINKEKM showed a protein stability index of 0.693 ± 0.022.

For KKITSIHKKRER, the protein stability index is 0.822 ± 0.12.

For the sequence KKKDKKVKRRKV, the protein stability index was 0.769 ± 0.031.

Regarding KKKEGRMKQIYE, the protein stability index amounted to 0.688 ± 0.0088.

KKKEKTSEEKKK came in with a protein stability index of 0.701 ± 0.029.

Sequence KKKGDKVGTKEQ had a protein stability index of 0.657 ± 0.048.

Regarding KKKIKIQPRTEN, the protein stability index worked out at 0.7302 ± 0.0065.

Sequence KKKKDKEIIHKE displayed a protein stability index of 0.758 ± 0.12.

On to KKKKEEKQKGLK, for which the protein stability index came out at 0.69 ± 0.028.
